# Measurements from patent US20240376149A1, “Novel Modulators of GABABR1a” (VIB VZW, priority 2021, published 2024).
# *1 amine or outer side, *2 acyl side, *3 side chain or, on linkers, in order; H or OH if unused. Where a SMILES comes first, the peptide text is derived from it. Where no end group is shown, it is not given here. [ ]: non-standard residue; d: D form. The star is where a group is joined. X1 = CCn1cc(C[C@H](N[*:1])C(=O)[*:2])c2ccccc21; X3 = COc1ccc(C[C@H](N[*:1])C(=O)[*:2])cc1C; X4 = O=C([C@H](Cc1ccc(CO)cc1)N[*:1])[*:2]; Piperazinyl(4-Me) = CN1CCN(*)CC1; Ac4c = NC1(C(=O)O)CCC1
# B1: VIB-0068896 (peptide)
# peptide: DIXWS
# modifications: D-aspartic acid at position 1; position 3 (X) is the non-natural residue F44 = (4-methylphenyl)methanol
# notes: Peptidomimetic 5-mer; X marks the non-natural residue
# B2: VIB-0068912 (peptide)
# peptide: DIXWS
# modifications: D-aspartic acid at position 1; position 3 (X) is the non-natural residue F86 = 1-chloro-4-methylbenzene
# notes: as for B1
# B3: VIB-0068909 (peptide)
# peptide: DIXWS
# modifications: D-aspartic acid at position 1; position 3 (X) is the non-natural residue F57 = 4-methylaniline
# notes: as for B1
# Target: T1, GABABR1a-SD1 (SD1-FITC-9mer complex) (Homo sapiens, UniProt Q9UBS5)
# T1 construct: The synthetic gene encoding for residues 26-96 of the Sushi1 protein was cloned into a pFloat-SUMO vector; His-SUMO (with 3C protease site) (N, cleaved yes); made in house; host or cells: E. coli BL21(DE3)
# Assay: Fluorescence polarization (FP) competition assay with FITC-9mer
# Format: binding
# Settings: competition with FITC-9mer for SD1
# Protocol: Intrigued by the surprising results of the 5-mer, it was decided to set up a medium- to high-throughput screen to optimize the 5-mer sequence. Several assays were tested to find a reproducible, robust and cost-effective assay that is also suitable for high-throughput screening. A fluorescence polarization (FP) assay was selected. FP measurements are well-known for receptor binding assays. The assay is based on the rotational movement of fluorescently labelled molecules in solution. […] The FP assay was optimized using the FITC labelled sAPP 9-mer (FIG. 1).
# (§1) To screen for GABABR1a binders using unlabelled test compounds, the assay was turned into a competition assay using FITC-9mer. […] To validate this inhibitor assay, the IC50 values were determined of the 17-mer, 9-mer, 5-mer as well as those from 3 negative controls: 10-mer, scrambled 17-mer and a scrambled 9-mer (FIG. 2).
# (§2) To determine if the peptides of this application were able to disrupt the SD1-9-mer complex, each peptide (in single point or dose-response curve) tested was incubate with SD1 protein for 1 h at RT. After this initially incubation, FITC-9mer was added to the previous mix and incubated during 2 h at RT. The signal intensity was measure in an appropriate plate reader using the following settings: Number of flashes per well: 200; Excitation: F482-16; Dichroic filter: FLP 504; Emission A F530-40; Gain A: 738, Gain B: 736. The assay was conducted in a 384-well plate.
row,Molecule,IC50
1,"CC[C@H](C)[C@H](NC(=O)[C@H](N)CC(=O)O)C(=O)N[C@@H](Cc1ccc(O)cc1)C(=O)N[C@@H](Cc1c[nH]c2ccccc12)C(=O)N[C@@H](CO)C(=O)O [VIB-0068902, dIYWS]",11.6 µM
2,"CC[C@H](C)[C@H](NC(=O)[C@H](N)CC(=O)O)C(=O)N[C@@H](Cc1ccc(O)cc1)C(=O)N[C@@H](Cc1ccc(O)cc1)C(=O)N[C@@H](CO)C(=O)O [VIB-0068914, dIYYS] (H-[dD]IYYS-OH; N-terminus and C-terminus assumed)",25.1 µM

# Same assay, conditions: peptide at 50 μM; inhibition of FITC-9mer binding to SD1
row,Molecule,inhibition at 50 µM
1,CC[C@H](C)[C@H](NC(=O)[C@H](N)CC(=O)O)C(=O)N[C@@H](Cc1ccc(O)cc1)C(=O)N[C@@H](Cc1c[nH]c2ccccc12)C(=O)N[C@@H](CO)C(=O)Nc1nncs1 [VIB-0068870],34.6%
2,CC[C@H](C)[C@H](NC(=O)[C@H](N)CC(=O)O)C(=O)N[C@@H](Cc1ccc(O)cc1)C(=O)N[C@@H](Cc1c[nH]c2ccccc12)C(=O)N[C@@H](CO)C(=O)NCC(=O)N1CCN(C)CC1 [VIB-0068875] (H-[dD]IYWSG-{Piperazinyl(4-Me)}; N-terminus assumed),41.8%
3,CC[C@H](C)[C@H](NC(=O)[C@@H](CC(=O)O)NC(=O)C1(N)CCC1)C(=O)N[C@@H](Cc1ccc(O)cc1)C(=O)N[C@@H](Cc1c[nH]c2ccccc12)C(=O)N[C@@H](CO)C(=O)O [VIB-0068884] (H-[Ac4c][dD]IYWS-OH; C-terminus assumed),41.5%
4,CC[C@H](C)[C@H](NC(=O)[C@H](N)CC(=O)O)C(=O)N[C@@H](Cc1ccc(CO)cc1)C(=O)N[C@@H](Cc1c[nH]c2ccccc12)C(=O)N[C@@H](CO)C(=O)O [VIB-0068896] (H-[dD]I[X4]WS-OH; N-terminus and C-terminus assumed),56.6%
5,"CC[C@H](C)[C@H](NC(=O)[C@H](N)CC(=O)O)C(=O)N[C@@H](Cc1ccc(O)cc1)C(=O)N[C@@H](Cc1c[nH]c2ccccc12)C(=O)N[C@@H](CO)C(=O)O [VIB-0068902, dIYWS]",76.8%
6,CC[C@H](C)[C@H](NC(=O)[C@H](N)CC(=O)O)C(=O)N[C@@H](Cc1cn(CC)c2ccccc12)C(=O)N[C@@H](Cc1c[nH]c2ccccc12)C(=O)N[C@@H](CO)C(=O)O [VIB-0068904] (H-[dD]I[X1]WS-OH; N-terminus and C-terminus assumed),26.7%
7,CC[C@H](C)[C@H](NC(=O)[C@H](N)CC(=O)O)C(=O)N[C@@H](Cc1ccc(OC)c(C)c1)C(=O)N[C@@H](Cc1c[nH]c2ccccc12)C(=O)N[C@@H](CO)C(=O)O [VIB-0068906] (H-[dD]I[X3]WS-OH; N-terminus and C-terminus assumed),70.8%
8,CC[C@H](C)[C@H](NC(=O)[C@H](N)CC(=O)O)C(=O)N[C@@H](Cc1cccc(C(=O)O)c1)C(=O)N[C@@H](Cc1c[nH]c2ccccc12)C(=O)N[C@@H](CO)C(=O)O [VIB-0068908],53.1%
9,CC[C@H](C)[C@H](NC(=O)[C@H](N)CC(=O)O)C(=O)N[C@@H](Cc1ccc(N)cc1)C(=O)N[C@@H](Cc1c[nH]c2ccccc12)C(=O)N[C@@H](CO)C(=O)O [VIB-0068909],44.2%
10,CC[C@H](C)[C@H](NC(=O)[C@H](N)CC(=O)O)C(=O)N[C@@H](Cc1ccc(Cl)cc1)C(=O)N[C@@H](Cc1c[nH]c2ccccc12)C(=O)N[C@@H](CO)C(=O)O [VIB-0068912],66.2%
11,"CC[C@H](C)[C@H](NC(=O)[C@H](N)CC(=O)O)C(=O)N[C@@H](Cc1ccc(O)cc1)C(=O)N[C@@H](Cc1ccc(O)cc1)C(=O)N[C@@H](CO)C(=O)O [VIB-0068914, dIYYS] (H-[dD]IYYS-OH; N-terminus and C-terminus assumed)",72.4%
12,PVHMS [VIB_P44],-7%

# Target: T2, Sushi domain 1 of the human GABA B1a receptor (human, UniProt Q9UBS5 26-96)
# T2 construct: Purified recombinant protein from E. coli; also called SD1; GABABR1a-SD1
# T2 sequence (Q9UBS5 26-96 limits assumed): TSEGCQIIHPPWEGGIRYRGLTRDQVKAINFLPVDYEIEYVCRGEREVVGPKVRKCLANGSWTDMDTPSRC
# Assay: ITC, peptide titrated into purified SD1
# Settings: not given
# Protocol: The Sushi-1 protein was dialysed overnight to PBS buffer and diluted to 30 μM in the same buffer. The peptides were resuspended in PBS at a stock concentration of 3 mM and diluted further in the same buffer to 300 μM. ITC experiments were performed on a Microcal ITC200 device. Titrations comprised 26×1.5 μL injections of peptide into protein, with 90 s intervals. An initial injection of ligand (0.5 μL) was made and discarded during data analysis. The data were fitted to a single binding site model using the Microcal LLC ITC₂₀₀. Original software provided by the manufacturer.
row,Molecule,Kd
1,DVHWS [VIB_P23],25.1 µM
2,PIHWS [VIB_P45],38 µM
3,B1,7.46 µM

# Target: T2, Sushi domain 1 of the human GABA B1a …
# Assay: FP competition vs FITC-9mer on purified SD1
# Settings: not given
# Protocol: Next, 35 variants of the DVWWG 5-mer peptide containing natural residues were tested in the above described FP assay. The peptides were tested at a concentration of 50 μM.
# as §2
Molecule,% inhibition 50 µM,IC50
PVHMS [VIB_P44],-7%,186 µM
DIHWS [VIB_P37],20%,35.6 µM
DIFWS [VIB_P35],55.9%,–
NIWWG [VIB_P65],41.4%,–
DVWWS [VIB_P39],85.5%,14 µM
NFYWS [VIB_P58],-7%,–
GVYWS [VIB_P60],47.5%,–
NIYWG [VIB_P68],15.9%,–
SVYWS [VIB_P41],5.28%,–
NVWWS [VIB_P48],33.5%,–
DVYWG [VIB_P53],33.5%,–
DIYWG [VIB_P42],47.9%,–
GIYWS [VIB_P47],53.4%,–
"DIYWS (not fully specified, also called VIB_43; DIYWS) [VIB_P43]",48.6%,21.2 µM
PIYWS [VIB_P49],25%,–
NVWWG [VIB_P56],17.9%,–
DIWWG (also called VIB_29) [VIB_P29],75%,16.5 µM
NIWWS [VIB_P66],66.4%,–
NIYWS [VIB_P63],19.4%,–

# Target: T2, Sushi domain 1 of the human GABA B1a …
# Assay: FP competition vs FITC-9mer on purified SD1
# Settings: not given
# Remark: another data set of the same source
# Protocol: as §1
# Based on structural information of DIYWS-SD1 and DIWWS-SD1 co-crystals, 48 peptides containing non-natural residues were manually designed and checked for binding to the GABABR1a SD1 in the FP assay at a concentration of 50 μM. These non-natural peptides were categorized based on the IC50 values obtained in the FP assay (Table 3). […] The listed non-natural 5-mers all share D-aspartate was on position 1 (residue position 4 of the 9-mer), L-isoleucine on position 2 (residue position 5 of the 9-mer), L-tryptophane on position 4 (residue position 7 of the 9-mer) and L-serine on position 5 (residue position 8 of the 9-mer), while position 3 is selected from the list consisting of L-tyrosine, isoethylmethyl-benzene, 6-chloro-3-methyl-1H-indole, methylcyclohexane, ethylcyclohexane, 2-naphthalene, ethylbenzene, 1,1-difluoro-4-cyclohexyl, 4-methyl-1-methoxy-2-methylbenzene, 1-chloro-4-methylbenzene, 4-methylphenyl-methanol, 3-methylbenzoic acid and 4-methylaniline.
Molecule,% inhibition 50 µM,IC50
B2,66.2%,32.7 µM
"[dD]IYWS-{N‑(1,3,4-thiadiazol-2-yl)amide} (also called VIB-0068870-001; dIYWS*) [VIB-0068870]",34.6%,16.5 µM
[dD]IYYS (also called dIYYS) [VIB-0068914],72.4%,–
"{(1-aminocyclobutyl)N‑methanone}-[dD]IYWS (not fully specified, also called *dIYWS) [VIB-0068884]",41.5%,100 µM
[dD]IYWS-{N‑(2-(4-methylpiperazin-1-yl)-2-oxoethyl)amide} (also called dIYWS**) [VIB-0068875],41.8%,71.2 µM
[dD]IYWS (also called dIYWS) [VIB-0068902],76.8%,–
B3,44.2%,88.3 µM
B1,56.6%,48 µM
